Results taken from FireProtDB (doi:10.1006/jmbi.1993.1508).

Settings: Bacillus amyloliquefaciens; pH 6.3; 25 °C; Urea; Fluorescence; MES 50 mM; reversible: yes; whole UniProt chain shown

B1: Ribonuclease wild type, P00648 (protein)
chain: MMKMEGIALKKRLSWISVCLLVLVSAAGMLFSTAAKTETSSHKAHTEAQVINTFDGVADYLQTYHKLPDNYITKSEAQALGWVASKGNLADVAPGKSIGGDIFSNREGKLPGKSGRTWREADINYTSGFRNSDRILYSSDWLIYKTTDHYQTFTKIR
  denaturant m value: 1.92 kcal/mol/M
  denaturant midpoint (higher = more stable): 4.58 M
  unfolding free energy: 8.82 kcal/mol
